14 molecules from PMC12001967, “Different RNA recognition by ProQ and FinO depends on the sequence surrounding intrinsic terminator hairpins” can be followed below.

Data set [1] addresses T1, ProQNTD (FinO domain of ProQ) (Escherichia coli, UniProt P45577 1-130).
T1 sequence: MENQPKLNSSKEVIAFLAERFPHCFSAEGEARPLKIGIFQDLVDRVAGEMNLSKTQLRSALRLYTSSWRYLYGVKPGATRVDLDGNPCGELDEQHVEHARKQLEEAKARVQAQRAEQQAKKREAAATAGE
The data set is described as follows: EMSA; 25 mM Tris-HCl pH 7.5, 150 mM NaCl, 5% glycerol, 1 mM MgCl2, 1 nM 32P-RNA, 30 min at room temperature; native 6% PAGE in 0.5x TBE at 4 C. To be noted: protein: recombinant, tags: pET-15b construct, label: 32P. On the technique in general: In EMSA bound probe runs differently from free probe, usually more slowly.

Data set [2] has as its target T2, ProQ (Escherichia coli, UniProt P45577 1-232).
T2 sequence: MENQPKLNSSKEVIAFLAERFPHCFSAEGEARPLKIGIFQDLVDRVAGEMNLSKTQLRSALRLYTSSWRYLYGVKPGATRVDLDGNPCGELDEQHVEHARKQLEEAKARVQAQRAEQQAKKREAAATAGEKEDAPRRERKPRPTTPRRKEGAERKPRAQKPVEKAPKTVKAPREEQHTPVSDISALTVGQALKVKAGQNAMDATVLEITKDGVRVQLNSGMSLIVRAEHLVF
Described as above. Particulars: protein: recombinant, tags: pET-15b construct, label: 32P.

The target in data set [3] is T3, FinO (F-like plasmid (Escherichia coli), UniProt P29367 1-186).
T3 sequence: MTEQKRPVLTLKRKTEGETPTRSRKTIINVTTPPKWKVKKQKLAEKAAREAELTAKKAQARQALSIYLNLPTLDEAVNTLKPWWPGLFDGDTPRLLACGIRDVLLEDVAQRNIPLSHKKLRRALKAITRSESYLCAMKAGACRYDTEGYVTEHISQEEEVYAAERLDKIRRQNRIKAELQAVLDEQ
Described as above. To be noted: protein: recombinant, tags: His6-TEV site (ENLYFQ/S) N-terminal in the expression construct, label: 32P.

The target in data set [4] is T3, FinO. The data set is described as follows: EMSA; max bound 57%; 150 mM NaCl, 25 mM Tris-HCl pH 7.5, 5% glycerol, 1 mM MgCl2, 1 nM 32P-RNA, 30 min at room temperature; native 6% PAGE in 0.5x TBE at 4 C. Particulars: protein: recombinant; tags: His6-TEV site (ENLYFQ/S) N-terminal in the expression construct; label: 32P; terminator hairpin.
The target in data set [5] is T2, ProQ. The data set can be described thus: EMSA; max bound 85%; 150 mM NaCl, 25 mM Tris-HCl pH 7.5, 5% glycerol, 1 mM MgCl2, 1 nM 32P-RNA, 30 min at room temperature; native 6% PAGE in 0.5x TBE at 4 C. To be noted: protein: recombinant; tags: pET-15b construct; label: 32P; terminator hairpin.
The target in data set [6] is T2, ProQ. The data set can be described thus: EMSA; max bound 67%; 150 mM NaCl, 25 mM Tris-HCl pH 7.5, 5% glycerol, 1 mM MgCl2, 1 nM 32P-RNA, 30 min at room temperature; native 6% PAGE in 0.5x TBE at 4 C. To be noted: protein: recombinant; tags: pET-15b construct; label: 32P; terminator hairpin.
The target in data set [7] is T3, FinO. The data set can be described thus: EMSA; max bound 55%; 150 mM NaCl, 25 mM Tris-HCl pH 7.5, 5% glycerol, 1 mM MgCl2, 1 nM 32P-RNA, 30 min at room temperature; native 6% PAGE in 0.5x TBE at 4 C. Particulars: protein: recombinant; tags: His6-TEV site (ENLYFQ/S) N-terminal in the expression construct; label: 32P; terminator hairpin.
Where [8] appears, read: terminator hairpin, 5' A4 paired with first four U of U8 tail.
Where [9] appears, read: terminator hairpin, A-G then C-A mismatch below, GAU4 tail.

Substitutions are numbered along the chain they refer to. Numbers in names are those of the source.

B1: cspE81-3' (structured_RNA)
RNA: GGCCCUUCUGCUGCAAACGUAAUCGCUCUGUAAGAUACGUCAGCAAGAAUUCAAAACCCGCUUAAUCAGCGGGUUUUUUUU
What is called Kd is the constant that tells how readily two partners part at equilibrium. In the case of B1, the figures for the Kd in data set [1] (setting [8]) and in data set [2] (setting [8]) were 2.4 ± 0.27 nM and 37 ± 7.1 nM, respectively.

B2: FinP (structured_RNA)
RNA: GGAUACAUAGGAACCUCCUCACAAAGGAUUCUAUGGACAGUCGAUGCAGGGAGUUCACGUCUCCCUGCAUCGGCGAUUUU
As for B2, the Kd in data set [3] (setting [9]) came to 110 ± 16 nM; in data set [1] (setting [9]) it was 19 ± 6 nM; in data set [2] (setting [9]) it was 79 ± 18 nM.

B3: FinP A39U;G75U;A76U (structured_RNA)
RNA: B2 RNA with A39U, G75U, A76U
For B3, the figures for the Kd in data set [3], in data set [1] and in data set [2] were 170 ± 45 nM, 9.4 ± 4.5 nM and 37 ± 5.4 nM, respectively.

B4: FinP A39U;G75U (structured_RNA)
RNA: B2 RNA with A39U, G75U
As for B4, the Kd amounted to 200 ± 73 nM in data set [3] and 6.2 ± 3.1 nM in data set [1].

B5: malM-FinP (structured_RNA)
RNA: GCUUUAUCAGCAGUGUAAAAGGCAAGGGGUAAUUACGCCCCACAGUGCUGAUUUUGCAACAACAGGUGCGUCUCCUGGCGCACCGAUUUU
Turning to B5, the Kd was determined as 86 ± 17 nM in data set [3] (terminator hairpin) and 78 ± 22 nM in data set [2] (terminator hairpin).

B6: malM-3' (structured_RNA)
RNA: GCUUUAUCAGCAGUGUAAAAGGCAAGGGGUAAUUACGCCCCACAGUGCUGAUUUUGCAACAACUGGUGCGUCUCCUGGCGCACCUUUUUUU
In the case of B6, the Kd turned out to be 5.8 ± 0.7 nM in data set [1] (terminator hairpin, U7 tail) and 27 ± 12 nM in data set [2] (terminator hairpin, U7 tail).

B7: malM-3' U64A;U85G (structured_RNA)
RNA: B6 RNA with U64A, U85G
For B7, the results for the dissociation constant Kd in data set [3] and in data set [1] were 150 ± 40 nM and 1.9 ± 0.59 nM, respectively.

B8: malM-3' U64A;U85G;U86A (structured_RNA)
RNA: B6 RNA with U64A, U85G, U86A
For the molecule B8, the Kd turned out to be 130 ± 18 nM in data set [3] and 160 ± 30 nM in data set [2].

B9: FinP-malM (structured_RNA)
RNA: GGAUACAUAGGAACCUCCUCACAAAGGAUUCUAUGGACUGUCGAUGCAGGGAGUUCACGUCUCCCUGCAUCGGCUUUUUUU
With B9, the dissociation constant (Kd) in data set [1] (terminator hairpin) turned out to be 5.3 ± 1.5 nM; in data set [2] (terminator hairpin), 25 ± 6.7 nM; in data set [4], 280 ± 110 nM.

B10: cspE81-FinP-stem (structured_RNA)
RNA: GGCCCUUCUGCUGCAAACGUAAUCGCUCUGUAAGAUACGUCAGCAAGAAUUCAACAGUCGCUUAAUCAGCGGCGAUUUU
Take B10: the results for the equilibrium dissociation constant (Kd) in data set [5], in data set [3] (terminator hairpin) and in data set [2] (terminator hairpin) were 130 ± 34 nM, 56 ± 16 nM and 130 ± 34 nM, respectively.

B11: cspE81-FinP (structured_RNA)
RNA: B10 RNA with G57C, U58C, C73G
With B11, the Kd came out at 88 ± 39 nM in data set [3] (terminator hairpin) and 4.9 ± 0.32 nM in data set [1] (terminator hairpin).

B12: malM-RepX (structured_RNA)
RNA: GCUUUAUCAGCAGUGUAAAAGGCAAGGGGUAAUUACGCCCCACAGUGCUGAUUUUGCAACAUUAGGUGCGUCUCCUGGCGCACCGCUCU
For the molecule B12, the Kd amounted to 61 ± 29 nM in data set [6], 180 ± 93 nM in data set [3] (terminator hairpin), 61 ± 29 nM in data set [2] (terminator hairpin) and 180 ± 93 nM in data set [7].

B13: RepX (structured_RNA)
RNA: GCAUUGAUUGCCUCCUUUGCAGGCAGUUGGUGGUUAGGCGCUGGCGGGGUCACUACCCCCGCCCUGCGCCGCUCU
Regarding B13, the Kd in data set [3] (terminator hairpin, A-G mismatch below) came to 61 ± 23 nM.

B14: RepX-malM (structured_RNA)
RNA: GCAUUGAUUGCCUCCUUUGCAGGCAGUUGGUGGACUGGCGCUGGCGGGGUCACUACCCCCGCCCUGCGCCUUUUUUU
Consider B14, for which the Kd in data set [3] (terminator hairpin) came out at 150 ± 67 nM; in data set [1] (terminator hairpin) it was 3.2 ± 1.6 nM.
